Experimental data from patent US20210317480.

What was measured:
[1] = test system: T1, G8PEX from Pseudomonas phage Pf1
T1 sequence: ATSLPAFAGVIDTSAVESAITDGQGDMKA

[2] = test system: T2, G8PEX from bacteriophage f1
T2 sequence: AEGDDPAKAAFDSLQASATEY

[3] = test system: T3, G8PEX from bacteriophage I2-2
T3 sequence: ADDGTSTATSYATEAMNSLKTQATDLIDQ

[4] = test system: T4, G8PEX, extracellular region of the major coat protein G8P from bacteriophage M13
T4 sequence: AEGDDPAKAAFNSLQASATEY

[5] = test system: T5, G8PEX ortholog peptide from L. monocytogenes (strain M7) bacteriophage M7
T5 sequence: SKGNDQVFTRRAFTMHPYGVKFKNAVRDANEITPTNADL

For “Streptococcus pyogenes Cas9 nuclease (SpCas9)”, the “in vitro cleavage activity of SpCas9” value [1] was “could efficiently inhibit the cleavage activity of SpCas9 in vitro”, the “in vitro cleavage activity of SpCas9” value [2] was “could efficiently inhibit the cleavage activity of SpCas9 in vitro” and the “in vitro cleavage activity of SpCas9” value [3] was “could efficiently inhibit the cleavage activity of SpCas9 in vitro”. The “in vitro DNA cleavage by pre-assembled Cas9 RNP” value [4] was “the activity of pre-assembled Cas9 RNP was not affected by G8PEX”, the “in vitro cleavage activity of SpCas9” value [4] was “could efficiently inhibit the cleavage activity of SpCas9 in vitro” and the “DNA cleavage activity of SpCas9” value [5] was “efficiently prohibited SpCas9 to bind to sgRNA (FIG. 7d) or cleave DNA substrate (FIG. 7e)”.
